B1: N-terminal half of ubiquitin-fused talin head domain (N-Ub-THD), wild type [not stated] / integrin β3 transmembrane domain-tail fused to the C-terminal half of ubiquitin (C-Ub) [not stated] (parent)
chain 1: MVALSLKISIGNVVKTMQFEPSTMVYDACRMIRERIPEALAGPPNDFGLFLSDDDPKKGIWLEAGKALDYYMLRNGDTMEYRKKQRPLKIRMLDGTVKTIMVDDSKTVTDMLMTICARIGITNHDEYSLVRELMEEKKDEGTGTLRKDKTLLRDEKKMEKLKQKLHTDDELNWLDHGRTLREQGVEEHETLLLRRKFFYSDQNVDSRDPVQLNLLYVQARDDILNGSHPVSFDKACEFAGFQCQIQFGPHNEQKHKAGFLDLKDFLPKEYVKQKGERKIFQAHKNCGQMSEIEAKVRYVKLARSLKTYGVSFFLVKEKMKGKNKLVPRLLGITKECVMRVDEKTKEVIQEWSLTNIKRWAASPKSFTLDFGDYQDGYYSVQTTEGEQIAQLIAGYIDIILKKKKSKDHFGLEGDEESTMLEDSVSPKKSTVLQ
chain 2: ILVVLLSVMGAILLIGLAALLIWKLLITIHDRKEFAKFEEERARAKWDTANNPLYKEATSTFTNITYRGT

Variants of: B1
Assay: mammalian two-hybrid (split-ubiquitin) assay, GFP expression read by flow cytometry
Conditions: with integrin β3 transmembrane domain-tail fused to the C-terminal half of ubiquitin (C-Ub); CHO cells stably incorporated with 5xGAL4-UAS and the integrin β3 TMD-tail construct; Empty control 0.23 %, N-Ub-THD(ΔF3) 1.96 %; parent: 7.9
chain 1 K322D showed a response (% GFP-expressing cells) of 2.28.

From paper PMC11104707
